Cleavage of the 90 kDa fusion to a 60 kDa polypeptide (western blot, 293T cells treated with staurosporine) data for one substance are collected here from patent US20040053332A1.

This assay deals with ER-DEVD-Luc (mouse; firefly). The experiment in a line: cell-based or functional assay.

Substance caspase-3 (from UniProt P42574 29-277) had a cleavage of the 90 kDa fusion to a 60 kDa polypeptide (western blot, 293T cells treated with staurosporine) of 50%.
